Literature values as cited in paper PMC10119362.

Target: Amyloid-beta monomer (Homo sapiens) (UniProt P05067)

- Kd: 23 nM
Substance: Gantenerumab
